US9890400B2, “Method of production of 2,4-dihydroxybutyric acid” (ADISSEO FRANCE S.A.S., priority 2012, dated 2018)
Substitutions are numbered along the chain they refer to. In names and notes the source's numbering stands.

B1: H39R N43H: M. sedula succinic semialdehyde reductase double mutant H39R N43H, SEQ ID No. 36 (protein, listed as Metallosphaera sedula)
chain: MKAAVLHTYKEPLSIEDVNISQPKAGEVKIKVKATGLCRSDVHVFEGKTPVPPPVVAGHEISGIVEEVGPGVTRVKPGDRVISAFIHPCGKCGNCVAGKENLCETFSQVRLKGVMPDGTSRLSKDGKEIRTFLGGGFAEYAIVGENALTRVPEDMDLEKVAVLGCAGLTGYGAISSSKIEPGDTVAVIGVGGVGLSTIQLLRASGAGRIIAVGTKKWKLDRAMELGATDVVNSKEIDPVKAIKEITGGGPQVVIEAGGNEDTIHMALDSVRIGGKVVLVGLPPATAMIPIRVASIVRGGIEVVGNYGGRPRVDMPKLLELVRQGRYDPSRLVTGRFRLEEINEAVKMLEEGEAIRSLIIP
B2: Ms-SSR: succinic semialdehyde reductase from Metallosphaera sedula, SEQ ID No. 16 (protein, listed as Metallosphaera sedula)
chain: B1 chain with R39H, H43N
B3: YPR1: methylbutyraldehyde reductase from Saccharomyces cerevisiae, SEQ ID No. 14 (protein, listed as Saccharomyces cerevisiae)
chain: MPATLKNSSATLKLNTGASIPVLGFGTWRSVDNNGYHSVIAALKAGYRHIDAAAIYLNEEEVGRAIKDSGVPREEIFITTKLWGTEQRDPEAALNKSLKRLGLDYVDLYLMHWPVPLKTDRVTDGNVLCIPTLEDGTVDIDTKEWNFIKTWELMQELPKTGKTKAVGVSNFSINNIKELLESPNNKVVPATNQIEIHPLLPQDELIAFCKEKGIVVEAYSPFGSANAPLLKEQAIIDMAKKHGVEPAQLIISWSIQRGYVVLAKSVNPERIVSNFKIFTLPEDDFKTISNLSKVHGTKRVVDMKWGSFPIFQ
B4: 4hbdh: 4-hydroxybutyrate dehydrogenase of P. gingivalis, SEQ ID No. 187 (protein, listed as Porphyromonas gingivalis)
chain: MQLFKLKSVTHHFDTFAEFAKEFCLGERDLVITNEFIYEPYMKACQLPCHFVMQEKYGQGEPSDEMMNNILADIRNIQFDRVIGIGGGTVIDISKLFVLKGLNDVLDAFDRKIPLIKEKELIIVPTTCGTGSEVTNISIAEIKSRHTKMGLADDAIVADHAIIIPELLKSLPFHFYACSAIDALIHAIESYVSPKASPYSRLFSEAAWDIILEVFKKIAEHGPEYRFEKLGEMIMASNYAGIAFGNAGVGAVHALSYPLGGNYHVPHGEANYQFFTEVFKVYQKKNPFGYIVELNWKLSKILNCQPEYVYPKLDELLGCLLTKKPLHEYGMKDEEVRGFAESVLKTQQRLLANNYVELTVDEIEGIYRRLY
B5: YqhD: alcohol dehydrogenase of E. coli, SEQ ID No. 185 (protein, listed as Escherichia coli)
chain: MNNFNLHTPTRILFGKGAIAGLREQIPHDARVLITYGGGSVKKTGVLDQVLDALKGMDVLEFGGIEPNPAYETLMNAVKLVREQKVTFLLAVGGGSVLDGTKFIAAAANYPENIDPWHILQTGGKEIKSAIPMGCVLTLPATGSESNAGAVISRKTTGDKQAFHSAHVQPVFAVLDPVYTYTLPPRQVANGVVDAFVHTVEQYVTKPVDAKIQDRFAEGILLTLIEDGPKALKEPENYDVRANVMWAATQALNGLIGAGVPQDWATHMLGHELTAMHGLDHAQTLAIVLPALWNEKRDTKRAKLLQYAERVWNITEGSDDERIDAAIAATRNFFEQLGVPTHLSDYGLDGSSIPALLKKLEEHGMTQLGENHDITLDVSRRIYEAAR

Assay: Test for malate semialdehyde reductase (DHB dehydrogenase) activity
Type: biochemical
Settings: for Activity on malate semialdehyde (cofactor NADH) / Activity on malate semialdehyde (cofactor NADPH): 10 mM malate semialdehyde, 30° C., average of at least two experiments
Method: Test for Malate Semialdehyde Reductase Activity: (L)-Malate semialdehyde+NAD(P)H→(L)-2,4-dihydroxybutyric acid+NAD(P) Reaction scheme:
The assay mixture contained 200 mM Hepes (pH 7.5), 50 mM KCl, 5 mM MgCl2, 0.24 mM NADH or NADPH, and appropriate amounts of purified enzyme or cell extract. Reactions were started by adding 10 mM (L)-malate semialdehyde (malate semialdehyde was prepared freshly for each test, see Example 3). Enzymatic assays were carried out at 30° C. in 96-well flat bottomed microtiter plates in a final volume of 250 μL. The reactions were followed by the characteristic absorption of NAD(P)H at 340 nm (εNADPH=6.22 mM^−1 cm^−1) in a microplate reader (BioRad 680XR).

Row | Molecule | affinity for malate semialdehyde compared to the wild type enzyme (in words) | Activity on malate semialdehyde (cofactor NADH) | Activity on malate semialdehyde (cofactor NADPH)
1 | B1 | improved affinity | – | –
2 | B2 | – | 4.9 μmol/(min * mg_prot) | 4.9 μmol/(min * mg_prot)
3 | B3 | – | – | 0.19 μmol/(min * mg_prot)
4 | B4 | – | 33 μmol/(min * mg_prot) | –
5 | B5 | – | – | 1.2 μmol/(min * mg_prot)
